Reference: US20250295799A1 (Zymeworks, published 2025)

Columns and labels:
[1] = target: T1, human GPC3 on cells (human, UniProt P51654 25-554); experiment: flow cytometry on HepG2 cells (GPC3-high), 24 h at 4 C, anti-human IgG Fc AF647
T1 construct: GPI-anchored protein on transfected CHO-S cells, on human tumor cell lines or on HEK293T cells; the cell is named under assay; also called human GPC3 on CHO-S transfected cells; HuGPC3-CHO
Procedure: (§1) Cell lines investigated included GPC3-hi HepG2 and JHH-7 cells, GPC3-mid JHH-5 cells, as well as GPC3-negative SNU-601 cells.
(§2) Briefly, cells were seeded at 50,000 cells/well in V-bottom 96-well plates and treated with antibody for 24 hours at 4° C. to prevent internalization. […] Following incubation and washing, fluorescence was detected by flow cytometry on a BD LSRFortessa™ Cell Analyzer (BD Biosciences, Franklin Lake, NJ) with 1,000 minimum events collected per well. AF647/APC-A GeoMean (fluorescence signal geometric mean, proportional to anti-Human AF647 binding) in live cell population was plotted against antibody concentration using GraphPad Prism Version 9 (GraphPad Software, San Diego, CA). The Bmax, Curve Hill Slope (h) and Kd values were derived from the “Specific binding with Hill slope” nonlinear regression curve fit in GraphPad Prism Version 9.

[2] = target: T1, human GPC3 on cells; experiment: flow cytometry on JHH-7 cells (GPC3-high), 24 h at 4 C, anti-human IgG Fc AF647
Procedure: as §1, §2

[3] = target: T2, human GPC3 on cells (human, UniProt P51654 25-554); experiment: flow cytometry, HepG2 cells
T2 construct: whole, on cells; One molecule is used for transfected CHO-S cells and for tumour cell lines that carry GPC3; the cell line is named under assay or readout; also called CHO-S Human GPC3; GPC3 on HepG2, JHH-7, JHH-5, NCI-H446, FU-97, Huh-6, Huh-7, MKN-45 cells
Procedure: as §1, §2

[4] = target: T2, human GPC3 on cells; experiment: flow cytometry, JHH-5 cells
Procedure: as §1, §2

[5] = target: T2, human GPC3 on cells; experiment: flow cytometry, JHH-7 cells
Procedure: as §1, §2

[6] = target: T2, human GPC3 on cells; experiment: flow cytometry, CHO-S cells transfected with human GPC3
Procedure: (§3) Briefly, CHO—S cells were transiently transfected for −24 hours with a pTT5-based expression plasmid encoding human GPC3 or cynomolgus monkey GPC3, 0.5 μg DNA per 1 million cells, using the Neon™ Transfection System (Thermo Fisher Scientific Corp., Waltham, MA), to transiently express human or cynomolgus monkey GPC3. Following transfection, cells were seeded at 50,000 cells/well in V-bottom 96-well plates and treated with antibody for 24 hours at 4° C. to prevent internalization. […] Following incubation and washing, fluorescence was detected by flow cytometry on a BD LSRFortessa™ Cell Analyzer (BD Biosciences, Franklin Lake, NJ) with 1,000 minimum events collected per well. AF647/APC-A GeoMean (fluorescence signal geometric mean, proportional to anti-Human AF647 binding) in live cell population was plotted against antibody concentration using GraphPad Prism Version 9 (GraphPad Software, San Diego, CA). The Bmax and Kd values were derived from the “Specific binding with Hill slope” nonlinear regression curve fit in GraphPad Prism Version 9.

[7] = target: T3, cynomolgus monkey GPC3 on CHO-S cells (cynomolgus monkey, UniProt A0A2K5VK50 24-553); experiment: flow cytometry, CHO-S cells transfected with cynomolgus monkey GPC3
T3 construct: whole, on cells; also called CHO-S Cyno GPC3
Procedure: as §3

[8] = target: T2, human GPC3 on cells; experiment: flow cytometry, CHO-S cells transfected with human GPC3; apparent Kd
Procedure: as §3

[9] = target: T3, cynomolgus monkey GPC3 on CHO-S cells; experiment: flow cytometry, CHO-S cells transfected with cynomolgus monkey GPC3; apparent Kd
Procedure: as §3

| Binder | EC50 (read off the curve) [1] | EC50 (read off the curve) [2] | Bmax [3] | Bmax [4] | Kd [4] | Bmax [5] | Kd [5] | Bmax [6] | Bmax [7] | Kd [8] | Kd [9] | Kd [3] |
| --- | --- | --- | --- | --- | --- | --- | --- | --- | --- | --- | --- | --- |
| v38592-MC-GGFG-AM-Compound 139, DAR 8 (antibody, human IgG1, kappa, MC-GGFG-AM-Compound 139 drug-linker on reduced cysteines, sites not stated; MC-GGFG-AM-Compound 139 drug-linker on reduced cysteines, sites not stated; DAR 8 for the whole antibody, antibody-drug conjugate) heavy: not shown light: EIVLTQSPATLSLSPGERATISCRSSQSLRHSNGNTYLQWYQQKPGQAPRLLIYKVSNRFSGVPARFSGSGSGTDFTLTISSLEPEDFAVYFCYQSKHVPYTFGGGTKVEIKRTVAAPSVFIFPPSDEQLKSGTASVVCLLNNFYPREAKVQWKVDNALQSGNSQESVTEQDSKDSTYSLSSTLTLSKADYEKHKVYACEVTHQGLSSPVTKSFNRGEC | ~7000 pM | ~800 pM | – | – | – | – | – | – | – | – | – | – |
| v37574 (M3-H18L6) (antibody, human IgG1, kappa, Humanized full-size IgG1/kappa antibody, heavy chains without C-terminal lysine) heavy: not shown light: EIVLTQSPATLSLSPGERATISCRSSQSLRHSNGNTYLQWYQQKPGQAPRLLIYKVSNRFSGVPARFSGSGSGTDFTLTISSLEPEDFAVYFCYQSKHVPYTFGGGTKVEIKRTVAAPSVFIFPPSDEQLKSGTASVVCLLNNFYPREAKVQWKVDNALQSGNSQESVTEQDSKDSTYSLSSTLTLSKADYEKHKVYACEVTHQGLSSPVTKSFNRGEC | – | – | 4570 | 4350 | 200 pM | 4980 | 3310 pM | 242 | 474 | 200 pM | 390 pM | – |
| v38592-MC-GGFG-AM-Compound 139, DAR 4 (antibody, human IgG1, kappa, MC-GGFG-AM-Compound 139 drug-linker on cysteines (positions not stated); DAR 4 per antibody, Antibody-drug conjugate of v38592) heavy: not shown light: EIVLTQSPATLSLSPGERATISCRSSQSLRHSNGNTYLQWYQQKPGQAPRLLIYKVSNRFSGVPARFSGSGSGTDFTLTISSLEPEDFAVYFCYQSKHVPYTFGGGTKVEIKRTVAAPSVFIFPPSDEQLKSGTASVVCLLNNFYPREAKVQWKVDNALQSGNSQESVTEQDSKDSTYSLSSTLTLSKADYEKHKVYACEVTHQGLSSPVTKSFNRGEC | – | – | 4050 | 5500 | 430 pM | 4730 | 880 pM | 259 | 506 | 290 pM | 550 pM | 8690 pM |
| v38592-MC-GGFG-AM-Compound 139, DAR 8 (antibody, human IgG1, kappa, MC-GGFG-AM-Compound 139 drug-linker on cysteines (positions not stated); DAR 8 per antibody, Antibody-drug conjugate of v38592) heavy: not shown light: EIVLTQSPATLSLSPGERATISCRSSQSLRHSNGNTYLQWYQQKPGQAPRLLIYKVSNRFSGVPARFSGSGSGTDFTLTISSLEPEDFAVYFCYQSKHVPYTFGGGTKVEIKRTVAAPSVFIFPPSDEQLKSGTASVVCLLNNFYPREAKVQWKVDNALQSGNSQESVTEQDSKDSTYSLSSTLTLSKADYEKHKVYACEVTHQGLSSPVTKSFNRGEC | – | – | 3370 | 5710 | 510 pM | 4550 | 700 pM | 247 | 511 | 330 pM | 700 pM | 7270 pM |
